In US20240270821A1, “GIP/GLP1/GCG TRI-RECEPTOR AGONISTS AND USES THEREOF” (priority 2023, published 2024):
Residue numbers refer to the chain shown, from its start.

T1: human GIP receptor (human) (UniProt P48546)
T1 sequence (looked up): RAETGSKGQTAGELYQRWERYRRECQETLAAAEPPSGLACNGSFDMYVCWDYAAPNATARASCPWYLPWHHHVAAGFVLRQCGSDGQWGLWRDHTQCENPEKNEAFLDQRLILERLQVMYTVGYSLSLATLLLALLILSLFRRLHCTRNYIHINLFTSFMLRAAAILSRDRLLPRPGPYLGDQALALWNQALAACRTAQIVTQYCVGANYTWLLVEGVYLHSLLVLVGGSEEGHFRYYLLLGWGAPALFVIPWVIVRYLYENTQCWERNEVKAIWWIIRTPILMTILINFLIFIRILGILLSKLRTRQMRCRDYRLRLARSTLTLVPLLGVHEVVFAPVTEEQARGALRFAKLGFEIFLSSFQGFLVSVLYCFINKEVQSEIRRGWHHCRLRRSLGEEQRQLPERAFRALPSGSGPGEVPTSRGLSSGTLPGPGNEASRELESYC

B1: Example 281 (peptide)
chain: YXQGTFTSDXSKXLDKKAQXAFIEYLIEXGESSGEPPPSGE
modifications: synthetic construct; SITE 2: note = 2-Aminoisobutyric Acid; SITE 10: note = 3-(4-Pyridyl)-L-alanine; SITE 13: note = alpha-methyl-leucine; SITE 17: note = Lysine is chemically modified through conjugation of the epsilon-amino group of the Lysine side chain with (2-[2-(2-Amino-ethoxy)-ethoxy]-acetyl)
B2: Example 284 (peptide)
chain: B1 chain with X29A, E41S
modifications: synthetic construct; SITE 2: note = 2-Aminoisobutyric Acid; SITE 10: note = 3-(4-Pyridyl)-L-alanine; SITE 13: note = alpha-methyl-leucine; SITE 17: note = Lysine is chemically modified through conjugation of the epsilon-amino group of the Lysine side chain with (2-[2-(2-Amino-ethoxy)-ethoxy]-acetyl)
B3: Example 286 (peptide)
chain: B1 chain with E28A
modifications: synthetic construct; SITE 2: note = 2-Aminoisobutyric Acid; SITE 10: note = 3-(4-Pyridyl)-L-alanine; SITE 13: note = alpha-methyl-leucine; SITE 17: note = Lysine is chemically modified through conjugation of the epsilon-amino group of the Lysine side chain with (2-[2-(2-Amino-ethoxy)-ethoxy]-acetyl)
B4: Example 259 (peptide)
chain: YXQGTFTSDFSXXLDKKAQXAFIEYLLEAGPSSGAPPPSGH
modifications: synthetic construct; SITE 2: note = 2-Aminoisobutyric Acid; SITE 12: note = L-ornithine; SITE 13: note = alpha-methyl-leucine; SITE 17: note = Lysine is chemically modified through conjugation of the epsilon-amino group of the Lysine side chain with (2-[2-(2-Amino-ethoxy)-ethoxy]-acetyl)-(gamma-Glu)
B5: Example 267 (peptide)
chain: B4 chain with Y25W, A29G, P31X, H41E
modifications: synthetic construct; SITE 2: note = 2-Aminoisobutyric Acid; SITE 12: note = L-ornithine; SITE 13: note = alpha-methyl-leucine; SITE 17: note = Lysine is chemically modified through conjugation of the epsilon-amino group of the Lysine side chain with (2-[2-(2-Amino-ethoxy)-ethoxy]-acetyl)-(gamma-Glu)
B6: Example 260 (peptide)
chain: B4 chain with A29G, H41T
modifications: synthetic construct; SITE 2: note = 2-Aminoisobutyric Acid; SITE 12: note = L-ornithine; SITE 13: note = alpha-methyl-leucine; SITE 17: note = Lysine is chemically modified through conjugation of the epsilon-amino group of the Lysine side chain with (gamma-Glu)2-CO-(CH2)16-CO2H; SITE 20: note = 2-Am
B7: Example 261 (peptide)
chain: B4 chain with A29G, S39G, H41X
modifications: synthetic construct; SITE 2: note = 2-Aminoisobutyric Acid; SITE 12: note = L-ornithine; SITE 13: note = alpha-methyl-leucine; SITE 17: note = Lysine is chemically modified through conjugation of the epsilon-amino group of the Lysine side chain with (2-[2-(2-Amino-ethoxy)-ethoxy]-acetyl)-(gamma-Glu)
B8: Example 263 (peptide)
chain: B4 chain with Y25W, P31S, H41T
modifications: synthetic construct; SITE 2: note = 2-Aminoisobutyric Acid; SITE 12: note = L-ornithine; SITE 13: note = alpha-methyl-leucine; SITE 17: note = Lysine is chemically modified through conjugation of the epsilon-amino group of the Lysine side chain with (2-[2-(2-Amino-ethoxy)-ethoxy]-acetyl)-(gamma-Glu)
B9: Example 268 (peptide)
chain: B4 chain with Y25W, A29G, P31X, H41T
modifications: synthetic construct; SITE 2: note = 2-Aminoisobutyric Acid; SITE 12: note = L-ornithine; SITE 13: note = alpha-methyl-leucine; SITE 17: note = Lysine is chemically modified through conjugation of the epsilon-amino group of the Lysine side chain with (2-[2-(2-Amino-ethoxy)-ethoxy]-acetyl)-(gamma-Glu)
B10: Example 264 (peptide)
chain: B4 chain with Y25W, A29X, P31S, H41T
modifications: synthetic construct; SITE 2: note = 2-Aminoisobutyric Acid; SITE 12: note = L-ornithine; SITE 13: note = alpha-methyl-leucine; SITE 17: note = Lysine is chemically modified through conjugation of the epsilon-amino group of the Lysine side chain with (2-[2-(2-Amino-ethoxy)-ethoxy]-acetyl)-(gamma-Glu)
B11: Example 275 (peptide)
chain: B4 chain with F10X, G34X, H41T
modifications: synthetic construct; SITE 2: note = 2-Aminoisobutyric Acid; SITE 10: note = 3-(4-Pyridyl)-L-alanine; SITE 12: note = L-ornithine; SITE 13: note = alpha-methyl-leucine; SITE 17: note = Lysine is chemically modified through conjugation of the epsilon-amino group of the Lysine side chain with (2-[2-(2-
B12: Example 262 (peptide)
chain: B4 chain with Y25W, A29G, S39E, H41X
modifications: synthetic construct; SITE 2: note = 2-Aminoisobutyric Acid; SITE 12: note = L-ornithine; SITE 13: note = alpha-methyl-leucine; SITE 17: note = Lysine is chemically modified through conjugation of the epsilon-amino group of the Lysine side chain with (2-[2-(2-Amino-ethoxy)-ethoxy]-acetyl)-(gamma-Glu)
B13: Example 274 (peptide)
chain: B4 chain with F10X, H41X
modifications: synthetic construct; SITE 2: note = 2-Aminoisobutyric Acid; SITE 10: note = 3-(4-Pyridyl)-L-alanine; SITE 12: note = L-ornithine; SITE 13: note = alpha-methyl-leucine; SITE 17: note = Lysine is chemically modified through conjugation of the epsilon-amino group of the Lysine side chain with (2-[2-(2-
B14: Example 146 (peptide)
chain: B4 chain with X12K, A29G, P31E, H41S
modifications: synthetic construct; SITE 2: note = 2-Aminoisobutyric Acid; SITE 13: note = alpha-methyl-leucine; SITE 17: note = Lysine is chemically modified through conjugation of the epsilon-amino group of the Lysine side chain with (2-[2-(2-Amino-ethoxy)-ethoxy]-acetyl)-(gamma-Glu)-CO-(CH2) 16-CO2H; SITE 20: n
B15: Example 273 (peptide)
chain: B4 chain with Y25W, A29G, P31H, S39G, H41E
modifications: synthetic construct; SITE 2: note = 2-Aminoisobutyric Acid; SITE 12: note = L-ornithine; SITE 13: note = alpha-methyl-leucine; SITE 17: note = Lysine is chemically modified through conjugation of the epsilon-amino group of the Lysine side chain with (2-[2-(2-Amino-ethoxy)-ethoxy]-acetyl)-(gamma-Glu)
B16: Example 271 (peptide)
chain: B4 chain with Y25W, A29G, P31H, S39G, H41E
modifications: synthetic construct; SITE 2: note = 2-Aminoisobutyric Acid; SITE 12: note = L-ornithine; SITE 13: note = alpha-methyl-leucine; SITE 17: note = Lysine is chemically modified through conjugation of the epsilon-amino group of the Lysine side chain with (2-[2-(2-Amino-ethoxy)-ethoxy]-acetyl)2-(gamma-Glu)
B17: Example 272 (peptide)
chain: B4 chain with Y25W, A29G, P31S, S39G, H41T
modifications: synthetic construct; SITE 2: note = 2-Aminoisobutyric Acid; SITE 12: note = L-ornithine; SITE 13: note = alpha-methyl-leucine; SITE 17: note = Lysine is chemically modified through conjugation of the epsilon-amino group of the Lysine side chain with (2-[2-(2-Amino-ethoxy)-ethoxy]-acetyl)-(gamma-Glu)
B18: Example 270 (peptide)
chain: B4 chain with Y25W, A29G, P31S
modifications: synthetic construct; SITE 2: note = 2-Aminoisobutyric Acid; SITE 12: note = L-ornithine; SITE 13: note = alpha-methyl-leucine; SITE 17: note = Lysine is chemically modified through conjugation of the epsilon-amino group of the Lysine side chain with (2-[2-(2-Amino-ethoxy)-ethoxy]-acetyl)-(gamma-Glu)
B19: Example 283 (peptide)
chain: B1 chain with X29A, E35A, E41S
modifications: synthetic construct; SITE 2: note = 2-Aminoisobutyric Acid; SITE 10: note = 3-(4-Pyridyl)-L-alanine; SITE 13: note = alpha-methyl-leucine; SITE 17: note = Lysine is chemically modified through conjugation of the epsilon-amino group of the Lysine side chain with (2-[2-(2-Amino-ethoxy)-ethoxy]-acetyl)
B20: Example 269 (peptide)
chain: B4 chain with Y25W, A29G, P31H
modifications: synthetic construct; SITE 2: note = 2-Aminoisobutyric Acid; SITE 12: note = L-ornithine; SITE 13: note = alpha-methyl-leucine; SITE 17: note = Lysine is chemically modified through conjugation of the epsilon-amino group of the Lysine side chain with (2-[2-(2-Amino-ethoxy)-ethoxy]-acetyl)-(gamma-Glu)
B21: Example 277 (peptide)
chain: B4 chain with A29X, H41X
modifications: synthetic construct; SITE 2: note = 2-Aminoisobutyric Acid; SITE 12: note = L-ornithine; SITE 13: note = alpha-methyl-leucine; SITE 17: note = Lysine is chemically modified through conjugation of the epsilon-amino group of the Lysine side chain with (gamma-Glu)-(2-[2-(2-Amino-ethoxy)-ethoxy]-acetyl)

Key:
Test in all cases: cell-based or functional assay
hGLP-1R = hGLP-1R (Homo sapiens, UniProt P43220)
Chain of hGLP-1R (P43220 24-463): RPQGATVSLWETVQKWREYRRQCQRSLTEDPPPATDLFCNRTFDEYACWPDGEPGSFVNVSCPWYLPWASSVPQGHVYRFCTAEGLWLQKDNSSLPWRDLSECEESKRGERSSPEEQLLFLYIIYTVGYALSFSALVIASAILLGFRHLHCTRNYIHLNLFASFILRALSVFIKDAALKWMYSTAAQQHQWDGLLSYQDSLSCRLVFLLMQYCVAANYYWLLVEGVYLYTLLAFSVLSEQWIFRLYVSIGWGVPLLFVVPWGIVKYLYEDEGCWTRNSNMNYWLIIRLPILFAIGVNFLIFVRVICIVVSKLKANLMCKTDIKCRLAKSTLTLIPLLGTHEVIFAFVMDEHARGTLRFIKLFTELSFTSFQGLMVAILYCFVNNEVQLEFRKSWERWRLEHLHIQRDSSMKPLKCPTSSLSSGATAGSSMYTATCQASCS

[1] = biological target: human glucagon receptor (human) (UniProt P47871)
Chain of human glucagon receptor (human) (P47871 26-477): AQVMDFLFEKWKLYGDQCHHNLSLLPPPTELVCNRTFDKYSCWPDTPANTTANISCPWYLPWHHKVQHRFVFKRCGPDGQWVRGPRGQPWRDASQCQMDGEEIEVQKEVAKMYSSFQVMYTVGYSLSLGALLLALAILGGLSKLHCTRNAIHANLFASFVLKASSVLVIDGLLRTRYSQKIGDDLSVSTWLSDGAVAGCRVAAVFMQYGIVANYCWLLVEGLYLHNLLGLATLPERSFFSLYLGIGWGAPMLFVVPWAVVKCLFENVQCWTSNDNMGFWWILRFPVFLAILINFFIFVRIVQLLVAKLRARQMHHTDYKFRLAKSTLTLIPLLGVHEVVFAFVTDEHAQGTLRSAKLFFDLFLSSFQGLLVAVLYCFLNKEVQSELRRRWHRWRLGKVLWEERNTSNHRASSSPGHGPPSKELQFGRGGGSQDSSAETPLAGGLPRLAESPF

[2] = biological target: T1, human GIP receptor (human)

| Binder | Relative cAMP EC50 (hGLP-1R) | cAMP Rel EC50 (in the presence of 1% HSA) (hGLP-1R) | Relative cAMP EC50 [1] | cAMP Rel EC50 (in the presence of 1% HSA) [1] | Relative cAMP EC50 [2] | cAMP Rel EC50 (in the presence of 1% HSA) [2] | cAMP Rel EC50, nM (in the presence of 1% HSA) (hGLP-1R) | cAMP Rel EC50, nM (in the presence of 1% HSA) [1] | cAMP Rel EC50, nM (in the presence of 1% HSA) [2] |
| --- | --- | --- | --- | --- | --- | --- | --- | --- | --- |
| B1 | 1.6 nM | 295 nM | 13.7 nM | 1370 nM | 0.154 nM | 25.8 nM | – | – | – |
| B2 | 1.54 nM | 271 nM | 9.21 nM | 1530 nM | 0.347 nM | 59.8 nM | – | – | – |
| B3 | 3.45 nM | 925 nM | 2.2 nM | 228 nM | 0.0845 nM | 11.5 nM | – | – | – |
| B4 | 1.47 nM | 220 nM | 2.55 nM | 317 nM | 0.114 nM | 18.4 nM | – | – | – |
| B5 | 5.86 nM | 1020 nM | 5.74 nM | 1380 nM | 0.279 nM | 55.5 nM | – | – | – |
| B6 | 3.85 nM | 160 nM | 5.04 nM | 162 nM | 0.251 nM | 12.4 nM | – | – | – |
| B7 | 3.12 nM | 383 nM | 5.49 nM | 520 nM | 0.29 nM | 38.4 nM | – | – | – |
| B8 | 1.32 nM | 257 nM | 7.53 nM | 893 nM | 0.169 nM | 25.7 nM | – | – | – |
| B9 | 3.14 nM | 437 nM | 7.69 nM | 1300 nM | 0.274 nM | 33.7 nM | – | – | – |
| B10 | 4.67 nM | 688 nM | 6.29 nM | 1000 nM | 0.0884 nM | 12.4 nM | – | – | – |
| B11 | 4.93 nM | 692 nM | 7.8 nM | 882 nM | 0.318 nM | 27.7 nM | – | – | – |
| B12 | 4.39 nM | 400 nM | 9.77 nM | 720 nM | 0.232 nM | 40.4 nM | – | – | – |
| B13 | 4.9 nM | 560 nM | 9.37 nM | 1120 nM | 0.296 nM | 27.6 nM | – | – | – |
| B14 | – | – | – | – | – | – | 678 nM | 463 nM | 74.6 nM |
| B15 | 4.02 nM | 516 nM | 6.96 nM | 1770 nM | 0.243 nM | 21.8 nM | – | – | – |
| B16 | 5 nM | 887 nM | 8.51 nM | 2680 nM | 0.152 nM | 15.7 nM | – | – | – |
| B17 | 2.62 nM | 486 nM | 7.91 nM | 1540 nM | 0.254 nM | 36.3 nM | – | – | – |
| B18 | 3.2 nM | 658 nM | 5 nM | 1060 nM | 0.26 nM | 36.5 nM | – | – | – |
| B19 | 1.16 nM | 233 nM | 9.73 nM | 1470 nM | 0.225 nM | 47.2 nM | – | – | – |
| B20 | 3.23 nM | 428 nM | 7.69 nM | 1100 nM | 0.288 nM | 21.9 nM | – | – | – |
| B21 | 5.56 nM | 639 nM | 10.6 nM | 1690 nM | 0.0672 nM | 13.3 nM | – | – | – |
